B1: MSA2 (structured_DNA)
DNA: TTACGTCAAGGTGTCACTCCTCAGTGGGAGGGGGTCCATGTCTTGTCGGGGTCGGGGGTGGAAGCATCTCTTTGGCGTG
B2: MSA1-T4 (structured_DNA)
DNA: CCGGTTAATTTATGCTCTACCCGTCCACCTACCGG
B3: MSA5-T6 (structured_DNA)
DNA: TCCACGGGTTTGCTGGCGGGGGGATAGTGCGGTGGA
B4: MSA5-T1 (structured_DNA)
DNA: TCCACGGGTTTGGCGTCGGGCCTGGCGGGGGGATAGTGCGGTGGA
B5: MSA7 (structured_DNA)
DNA: TTACGTCAAGGTGTCACTCCTGGCTGTGGGGTTCGGGGTCACTATTTGTCGGGAGGGGAGGAAGCATCTCTTTGGCGTG
B6: MSA5-T4 (structured_DNA)
DNA: CTTCCACGGGTTTGGCGTCGGGCCTGGCGGGGGGATAGTGCGGTGGAAG
B7: MSA3 (structured_DNA)
DNA: TTACGTCAAGGTGTCACTCCTACAGCGTCTGGTTGGTTTGGTTGGATCTTCGATCGCTGTGAAGCATCTCTTTGGCGTG
B8: MSA1-T2 (structured_DNA)
DNA: TTCCGGTTAATTTATGCTCTACCCGTCCACCTACCGGAA
B9: MSA5-T2 (structured_DNA)
DNA: ACGGGTTTGGCGTCGGGCCTGGCGGGGGGATAGTGCGGT
B10: MSA1 (structured_DNA)
DNA: TTACGTCAAGGTGTCACTCCCACTTTCCGGTTAATTTATGCTCTACCCGTCCACCTACCGGAAGCATCTCTTTGGCGTG
B11: MSA9 (structured_DNA)
DNA: TTACGTCAAGGTGTCACTCCTTCGTGTGGGTGGGGTCCTAACTTTCCTGTCGGGGTCGGGGAAGCATCTCTTTGGCGTG
B12: MSA6 (structured_DNA)
DNA: TTACGTCAAGGTGTCACTCCTCGGGGGGGTTTGGCACTGGGCCTGGCAGTACCGGGTCGCGAAGCATCTCTTTGGCGTG
B13: MSA10 (structured_DNA)
DNA: TTACGTCAAGGTGTCACTCCGCGGGTTTGGCTCCGGGCCTGGCGTTGCGGTCTGCTCCCCGAAGCATCTCTTTGGCGTG
B14: MSA8 (structured_DNA)
DNA: TTACGTCAAGGTGTCACTCCATGTGGGTGGGGGTCATTCTTCAGTGTCGGGAGGGGGTGGAAGCATCTCTTTGGCGTG
B15: MSA1-T3 (structured_DNA)
DNA: TCCGGTTAATTTATGCTCTACCCGTCCACCTACCGGA
B16: MSA5-T7 (structured_DNA)
DNA: TCCACGGCGTCGGGCCTGGCGGGGGGATAGTGCGGTGGA
B17: MSA4 (structured_DNA)
DNA: TTACGTCAAGGTGTCACTCCTGTGGGCGGGGGCGGTTGATTGTATTACTGTCGGGAGGGGGAAGCATCTCTTTGGCGTG
B18: MSA5 (structured_DNA)
DNA: TTACGTCAAGGTGTCACTCCACGGGTTTGGCGTCGGGCCTGGCGGGGGGATAGTGCGGTGGAAGCATCTCTTTGGCGTG
B19: MSA5-T3 (structured_DNA)
DNA: CTCCACGGGTTTGGCGTCGGGCCTGGCGGGGGGATAGTGCGGTGGAG
B20: MSA3-T2 (structured_DNA)
DNA: ACAGCGTCTGGTTGGTTTGGTTGGATCTTCGATCGCTGT

How the values were obtained:
[1] = target: SARS-CoV-2 spike S1 subunit (SARS-CoV-2 (wild type), UniProt P0DTC2 16-685); settings: protein: commercial; tags: His
[2] = target: HCoV-229E RBD (HCoV-229E, UniProt P15423 293-435); experiment: dot blot (filter binding); 50 nM protein; settings: protein: recombinant; tags: C-terminal His; hairpin
Sequence of HCoV-229E RBD (P15423 293-435): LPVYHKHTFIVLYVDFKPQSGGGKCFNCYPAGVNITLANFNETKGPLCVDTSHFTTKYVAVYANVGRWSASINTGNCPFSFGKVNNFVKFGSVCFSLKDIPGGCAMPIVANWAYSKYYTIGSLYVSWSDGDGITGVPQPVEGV

[3] = target: Human alpha-thrombin (human, UniProt P00734;P00734 315-363;364-622)
[4] = target: SARS-CoV-2 spike S1 subunit (SARS-CoV-2 (wild type), UniProt P0DTC2 16-685); settings: protein: commercial; tags: His; remark: listed apart in the source
[5] = target: SARS-CoV-2 spike RBD (SARS-CoV-2, UniProt P0DTC2 319-541); settings: protein: commercial
[6] = target: SARS-CoV-1 full spike protein (SARS-CoV-1, UniProt P59594 14-1195); settings: protein: commercial; chain copies: 3; label: 5'-32P; hairpin
[7] = target: SARS-CoV-1 RBD (SARS-CoV-1, UniProt P59594 306-527); settings: protein: recombinant; tags: C-terminal His; label: 5'-32P; hairpin
[8] = target: MERS-CoV RBD (MERS-CoV, UniProt K9N5Q8 367-588); settings: protein: recombinant; tags: C-terminal His; label: 5'-32P; hairpin
Sequence of MERS-CoV RBD (K9N5Q8 367-588): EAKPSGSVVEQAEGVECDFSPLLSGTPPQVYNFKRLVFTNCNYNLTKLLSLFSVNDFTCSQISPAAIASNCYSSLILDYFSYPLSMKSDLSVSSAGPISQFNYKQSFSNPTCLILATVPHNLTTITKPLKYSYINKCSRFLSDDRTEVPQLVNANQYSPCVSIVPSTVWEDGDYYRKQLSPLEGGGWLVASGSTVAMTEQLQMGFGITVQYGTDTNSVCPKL

Binder	Kd [1]	also measured
B1	9.2 ± 0.2 nM	–
B2	–	fold Kd increase [1]: 36 fold Kd increase vs MSA1-T3
B3	264 nM	–
B4	8.4 nM	–
B5	76.2 ± 10.5 nM	–
B6	6.3 nM	–
B7	1.9 ± 0.1 nM	–
B8	–	binding result [1]: binds
B9	10.1 nM	–
B10	–	binding result [2]: no binding; binding result [3]: no binding; Kd [4]: 1.8 ± 0.4 nM
B11	37.4 ± 1.6 nM	–
B12	16.2 ± 2.3 nM	–
B13	134 ± 21.3 nM	–
B14	23 ± 1 nM	–
B15	3.1 nM	–
B16	22.8 nM	–
B17	27.6 ± 0.6 nM	–
B18	2.7 ± 0.2 nM	binding result [2]: no binding; binding result [3]: no binding; Kd [5]: 4 ± 0.6 nM; binding result [6]: no binding; binding result [7]: no binding; binding result [8]: no binding
B19	7.3 nM	–
B20	1.9 nM	–

— PMC8287928
